From article PMC3834829, “A signature motif mediating selective interactions of BCL11A with the NR2E/F subfamily of orphan nuclear receptors” (Nucleic Acids Research, 2013)

B1: AAD-COUP-TFII-LBD-(144–414) [not stated] / LexA-COUP-TFII-LBD-(144–414) [not stated] (parent)
chain 1: MRREAVQRGRMPPTQPTHGQFALTNGDPLNCHSYLSGYISLLLRAEPYPTSRFGSQCMQPNNIMGIENICELAARMLFSAVEWARNIPFFPDLQITDQVALLRLTWSELFVLNAAQCSMPLHVAPLLAAAGLHASPMSADRVVAFMDHIRIFQEQVEKLKALHVDSAEYSCLKAIVLFTSDACGLSDVAHVESLQEKSQCALEEYVRSQYPNQPTRFGKLLLRLPSLRTVSSSVIEQLFFVRLVGKTPIETLIRDMLLSGSSFNWPYMAIQ
chain 2: B1 chain 1

Variants of: B1
Assay: yeast two-hybrid
Conditions: with LexA-COUP-TFII-LBD-(144–414);; read off a plot
With chain 1 V99A the response was 460 nmol/mg/min.
chain 1 F78A gave a response of 410 nmol/mg/min.
For chain 1 R103A, the response was 470 nmol/mg/min.
With chain 1 R85A the response was 390 nmol/mg/min.
For chain 1 I95A, the response was 500 nmol/mg/min.
